From US20180371086A1 come the findings set out here.

This assay addresses HIV-1 Env of isolate 92US657 (HIV-1). As to the kind of experiment: cell-based or functional assay.

PGT-121.60 (antibody) gave an IC50 (neutralization, CEM.NKr.CCR5.LucR based assay) of 0.168 µg/mL.
